This note sets out measurements from patent US20020164744A1, “Soluble, active recombinant human MAO-B” (priority 1999, published 2002).

The test system of series [1] is recombinant human MAO-B. Description: MAO-B activity assay (reaction velocity, specific activity, Km) with 1-methyl-4-(1-methyl-2-pyrryl)-1,2,3,6-tetrahydropyridine as substrate. In kind it is biochemical. The note with it: substrate 1-methyl-4-(1-methyl-2-pyrryl)-1,2,3,6-tetrahydropyridine; purified C-terminal deletion mutants. How it is done: (§1) The MAO-B containing solutions, including fractions isolated from chromatography columns, were assayed to measure reaction velocity. The assays were carried out in a final volume of 200 μl in 50 mM sodium phosphate, 10 mM NaCl, pH 7.5, with 0.2 mM substrate (1-methyl-4-(1-methyl-2-pyrryl)-1,2,3,6-tetrahydropyridine) as described in Flaherty, et al., J. Med. Chem., 39:4756-4761 (1996) hereby incorporated by reference. Reaction velocity was followed at an absorbence of 420 nm at 37° C. in a SpectraMax 250 96-well plate reader. Specific activity measurements were made using a Shimadzu UV-2101PC spectrophotometer equipped with a Shimadzu temperature controller (TCC-controller) set to 37° C. Protein concentrations were determined using the Bio-Rad Protein Assay kit (Bio-Rad Laboratories, Hercules, Calif.).
(§2) Analysis of samples containing purified wild-typeMAO-B was carried out using 1-methyl-4-(1-methyl-2-pyrryl)-1,2,3,6-tetrahydropyridine as the substrate. The effect of protein concentration on activity was measured. […] The plot of MAO-B concentration vs. activity was a straight line. Variation of the substrate at a constant enzyme concentration was used to determine the Km for the substrate. […] Again, the reaction progress at each concentration of substrate was followed as straight lines with coefficients of correlation greater than 0.99.
(§3) The activity of samples containing the purified mutant MAO-B described in Example 1 above was also analyzed using 1-methyl-4-(1-methyl-2-pyrryl)-1,2,3,6-tetrahydropyridine as the substrate. Activity was highest for wild-type MAO-B followed by the MAO-B mutant Met1-Leu498 which had approximately 10% of wild-type activity. The two remaining C-terminal deletion mutants, Met1-Val470 and Met1-Val418, had about the same activities, less than 0.1% of wild-type MAO-B activity. This confirms that deletion or truncation of the C-terminus of human MAO-B causes loss of enzymatic activity.

Series [2] has as its target T1, recombinant human MAO-B (Homo sapiens, UniProt P27338).
T1 construct: DNA coding for the full length and truncated C-terminal HIS tagged MAO-B proteins, as described above; made in house; host or cells: Saccharomyces cerevisiae INVSc1
T1 sequence (P27338 1-520): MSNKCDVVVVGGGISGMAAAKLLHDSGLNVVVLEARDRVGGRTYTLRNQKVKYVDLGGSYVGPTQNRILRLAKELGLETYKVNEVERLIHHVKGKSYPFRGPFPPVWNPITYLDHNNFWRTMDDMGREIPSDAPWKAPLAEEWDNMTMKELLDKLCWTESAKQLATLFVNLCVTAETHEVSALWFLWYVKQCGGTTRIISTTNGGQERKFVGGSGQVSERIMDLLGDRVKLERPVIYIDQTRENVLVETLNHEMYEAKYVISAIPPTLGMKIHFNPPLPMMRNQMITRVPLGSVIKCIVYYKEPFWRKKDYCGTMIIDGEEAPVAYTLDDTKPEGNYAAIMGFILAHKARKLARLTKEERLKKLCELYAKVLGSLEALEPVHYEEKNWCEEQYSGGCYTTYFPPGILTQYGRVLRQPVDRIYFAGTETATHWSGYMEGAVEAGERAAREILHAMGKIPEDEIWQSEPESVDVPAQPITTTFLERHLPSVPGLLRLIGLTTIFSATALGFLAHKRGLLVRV
The series is described as above. Type of series: biochemical. The procedure:
as §1, §2, §3

Setting [3] is: substrate 1-methyl-4-(1-methyl-2-pyrryl)-1,2,3,6-tetrahydropyridine, 37° C., fraction after purification step.
The mark [4] stands for this setting: substrate 1-methyl-4-(1-methyl-2-pyrryl)-1,2,3,6-tetrahydropyridine, fraction after purification step, read-out: Km FOR SUBSTRATE

Where two headings read alike, the source gives them in different places.

B1: Met1-Leu498: C-terminal deletion mutant of human MAO-B-HIS6, residues Met1-Leu498 (protein, UniProt P27338 1-498, looked up, fragment)
chain: MSNKCDVVVVGGGISGMAAAKLLHDSGLNVVVLEARDRVGGRTYTLRNQKVKYVDLGGSYVGPTQNRILRLAKELGLETYKVNEVERLIHHVKGKSYPFRGPFPPVWNPITYLDHNNFWRTMDDMGREIPSDAPWKAPLAEEWDNMTMKELLDKLCWTESAKQLATLFVNLCVTAETHEVSALWFLWYVKQCGGTTRIISTTNGGQERKFVGGSGQVSERIMDLLGDRVKLERPVIYIDQTRENVLVETLNHEMYEAKYVISAIPPTLGMKIHFNPPLPMMRNQMITRVPLGSVIKCIVYYKEPFWRKKDYCGTMIIDGEEAPVAYTLDDTKPEGNYAAIMGFILAHKARKLARLTKEERLKKLCELYAKVLGSLEALEPVHYEEKNWCEEQYSGGCYTTYFPPGILTQYGRVLRQPVDRIYFAGTETATHWSGYMEGAVEAGERAAREILHAMGKIPEDEIWQSEPESVDVPAQPITTTFLERHLPSVPGLLRLIGL
modifications: His6 tag
For the molecule B1, the “activity relative to wild-type MAO-B activity” value in series [1] was “approximately 10%”.

B2: Post-Superose 6 chromatography/concentrate: recombinant human MAO-B further resolved on Superose-6 size exclusion column and concentrated (protein, UniProt P27338 2-520, looked up)
Amine oxidase …: SNKCDVVVVGGGISGMAAAKLLHDSGLNVVVLEARDRVGGRTYTLRNQKVKYVDLGGSYVGPTQNRILRLAKELGLETYKVNEVERLIHHVKGKSYPFRGPFPPVWNPITYLDHNNFWRTMDDMGREIPSDAPWKAPLAEEWDNMTMKELLDKLCWTESAKQLATLFVNLCVTAETHEVSALWFLWYVKQCGGTTRIISTTNGGQERKFVGGSGQVSERIMDLLGDRVKLERPVIYIDQTRENVLVETLNHEMYEAKYVISAIPPTLGMKIHFNPPLPMMRNQMITRVPLGSVIKCIVYYKEPFWRKKDYCGTMIIDGEEAPVAYTLDDTKPEGNYAAIMGFILAHKARKLARLTKEERLKKLCELYAKVLGSLEALEPVHYEEKNWCEEQYSGGCYTTYFPPGILTQYGRVLRQPVDRIYFAGTETATHWSGYMEGAVEAGERAAREILHAMGKIPEDEIWQSEPESVDVPAQPITTTFLERHLPSVPGLLRLIGLTTIFSATALGFLAHKRGLLVRV
Broadly, the Km is the substrate concentration at which the rate is half of its maximum. With B2, the “SPECIFIC ACTIVITY” value in series [2] (setting [3]) worked out at 80.6 nmol/min/mg. For the same molecule, the Km in series [2] (setting [4]) came to 55.4 µM.

B3: IMAC eluted/concentrate: HIS-tagged recombinant human MAO-B from yeast extract, eluted from Ni-NTA IMAC column and concentrated (protein, UniProt P27338 2-520, looked up)
Amine oxidase …: B2 Amine oxidase …
modifications: His tag
notes: HIS-tagged recombinant human MAO-B from yeast extract, eluted from Ni-NTA IMAC column and concentrated
For the molecule B3, the “SPECIFIC ACTIVITY” value in series [2] (setting [3]) is 8.7 nmol/min/mg. Further, in series [2] (setting [4]), the Km stood at 71.9 µM.

B4: wild-type MAO-B: purified full-length recombinant human MAO-B with HIS6 tag expressed in S. cerevisiae (protein, UniProt P27338 1-520, looked up)
chain: T1 sequence (P27338 1-520)
modifications: full-length His6 tag
notes: purified full-length recombinant human MAO-B with HIS6 tag expressed in S. cerevisiae
B4: the “activity (rank among wild-type and mutants)” value in series [2] (substrate 1-methyl-4-(1-methyl-2-pyrryl)-1,2,3,6-tetrahydropyridine) is given as “highest”. Further, the Km in series [2] (substrate 1-methyl-4-(1-methyl-2-pyrryl)-1,2,3,6-tetrahydropyridine varied at constant enzyme concentration, 37° C., read-out: Km for the substrate (Lineweaver Burke plot)) came out at 71.9 µM.
